{"source": "patent US9382305B2", "about": "“Relaxin fusion polypeptides and uses thereof” (BAYER INTELLECTUAL PROPERTY GMBH, priority 2011, dated 2016)", "molecules": {"B1": {"name": "scR-Fc 13: rat IgG2b Fc (6 Histidine tag) linked via GlyGlySerGlyGlySerGlyGlySerPro to N terminal end of scR4; SEQ ID NO: 28 (protein)", "chain": "HHHHHHPTCPTCHKCPVPELLGGPSVFIFPPKPKDILLISQNAKVTCVVVDVSEEEPDVQFSWFVNNVEVHTAQTQPREEQYNSTFRVVSALPIQHQDWMSGKEFKCKVNNKALPSPIEKTISKPKGLVRKPQVYVMGPPTEQLTEQTVSLTCLTSGFLPNDIGVEWTSNGHIEKNYKNTEPVMDSDGSFFMYSKLNVERSRWDSRAPFVCSVVHEGLHNHHVEKSISRPPGKGGSGGSGGSPQLYSALANKCCHVGCTKRSLARFCGGGSGGGSGSWMEEVIKLCGRELVRAQIAICGMSTWS"}}, "key": {"[1]": {"tested_on": "isolated perfused rat heart", "experiment": "Isolated perfused rat heart (Langendorff)", "parameters": "species or system Wistar rats", "protocol": "Male Wistar rats (200-250 g) were anesthetized using Narcoren (100 mg/kg i.p.). The heart was rapidly excised and connected to a Langendorff perfusion system (FMI GmbH, Seeheim-Ober Beerbach, Germany). The heart was perfused at a constant rate of 10 ml/min with Krebs-Henseleit bicarbonate buffer solution equilibrated with 95% O2-5% CO2. The perfusion solution contained (in mmol/l): NaCl 118; KCl 3; NaHCO3 22; KH2PO41,2; MgSO4 1,2; CaCl2 1,8; Glucose 10; Na-Pyruvat 2. A pressure transducer registered the perfusion pressure in the perfusion system. The left ventricular pressure (LVP) was measured using a second pressure transducer connected to a water-filled balloon which was inserted into the left ventricle via the left atrium. The end diastolic pressure was initially set to 8 mm Hg by adjusting the volume of the balloon. The hearts were spontaneously beating. The signals from the pressure transducer were amplified, registered and used for the calculation of the heart frequency and +dp/dt by a personal computer."}, "[2]": {"molecular_target": "T1, human LGR7/RXFP1 receptor (Homo sapiens, UniProt Q9HBX9)", "T1 construct": "cloned as 2271 base pair long DNA fragment; expressed in transfected cells; host or cells: CHO K1 (ATCC CCL-61) with CRE-luciferase reporter; receptor in pcDNA3.1(-)", "T1 sequence (Q9HBX9 1-757)": "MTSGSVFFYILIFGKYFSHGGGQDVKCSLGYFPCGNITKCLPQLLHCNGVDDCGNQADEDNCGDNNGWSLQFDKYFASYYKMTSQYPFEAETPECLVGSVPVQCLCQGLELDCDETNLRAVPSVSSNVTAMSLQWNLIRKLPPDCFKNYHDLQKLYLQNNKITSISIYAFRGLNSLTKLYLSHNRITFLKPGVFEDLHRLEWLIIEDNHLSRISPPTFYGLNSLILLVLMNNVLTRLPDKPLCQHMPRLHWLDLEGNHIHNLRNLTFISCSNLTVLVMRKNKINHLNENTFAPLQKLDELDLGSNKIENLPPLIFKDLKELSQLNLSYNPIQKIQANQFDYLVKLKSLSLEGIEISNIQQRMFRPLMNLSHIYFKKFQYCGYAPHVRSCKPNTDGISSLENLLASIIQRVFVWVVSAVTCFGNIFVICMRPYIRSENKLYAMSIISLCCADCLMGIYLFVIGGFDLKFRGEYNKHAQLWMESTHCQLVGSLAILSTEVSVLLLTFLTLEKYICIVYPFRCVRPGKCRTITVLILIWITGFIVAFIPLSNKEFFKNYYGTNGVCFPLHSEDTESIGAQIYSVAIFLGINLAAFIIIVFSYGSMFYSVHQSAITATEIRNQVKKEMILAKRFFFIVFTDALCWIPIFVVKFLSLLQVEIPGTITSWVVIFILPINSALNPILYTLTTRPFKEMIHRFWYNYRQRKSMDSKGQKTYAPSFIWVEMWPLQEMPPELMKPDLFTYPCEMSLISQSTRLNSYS", "experiment": "Relaxin activity of plasma samples from scR-Fc 13 treated rats on CHO-CRE-LGR7 cell line", "assay_type": "cell-based", "details": "plasma 3, 5 and 7 days after intravenous administration to rats", "protocol": "Relaxin activity in blood samples obtained from scR-Fc 13 treated rats by using the CHO-CRE-LGR7 cell line was determined. Blood samples collected 3, 5, and 7 days after intravenous administration of scR-Fc 13 were incubated on the CHO-CRE-LGR7 cell line and Relative Lights Units were determined. Calibration curves were determined using hRelaxin 2 (R&D Systems, catalogue number 6586-RN-025) and purified scR-Fc 13. The EC50 within the dose response curve is marked by an X. Data are expressed as Relative Light Units, representing the activity of scR-Fc variants and hRelaxin 2 induced luciferase expression. Symbols represent means, error bars represent S.E.M."}}, "data": [{"molecule": "B1", "values": [{"measurement": "coronary flow", "setting": "[1]; perfusion, FIG. 11", "value": "significant increase"}, {"measurement": "heart rate", "setting": "[1]; perfusion, FIG. 11", "value": "significant increase"}, {"measurement": "left ventricular diastolic pressure", "setting": "[1]; perfusion, FIG. 11", "value": "decrease"}, {"measurement": "left ventricular pressure (+dp/dtmax)", "setting": "[1]; perfusion, FIG. 11", "value": "decrease"}, {"measurement": "effects on heart rate, coronary flow and contractility compared with hRelaxin 2", "setting": "[1]; ten fold higher concentration than hRelaxin 2 (1 nM)", "value": "Comparable effects"}, {"measurement": "activity of plasma samples", "setting": "[2]", "value": "activity could be determined"}]}]}
